Values joined by “and” are separate entries in the source; they are usually repeats but may differ in a detail not shown here. Equal entries are not always repeated.
What was measured:
rhesus IL17RB = target: T1, rhesus IL17RB (Macaca mulatta, UniProt H9FWT9); test: ELISA, SM17 binding to coated IL-17RB protein (rhesus); design: species or system rhesus monkey; settings: two wells
T1 construct: purchased R&D systems
T1 sequence (H9FWT9 18-502): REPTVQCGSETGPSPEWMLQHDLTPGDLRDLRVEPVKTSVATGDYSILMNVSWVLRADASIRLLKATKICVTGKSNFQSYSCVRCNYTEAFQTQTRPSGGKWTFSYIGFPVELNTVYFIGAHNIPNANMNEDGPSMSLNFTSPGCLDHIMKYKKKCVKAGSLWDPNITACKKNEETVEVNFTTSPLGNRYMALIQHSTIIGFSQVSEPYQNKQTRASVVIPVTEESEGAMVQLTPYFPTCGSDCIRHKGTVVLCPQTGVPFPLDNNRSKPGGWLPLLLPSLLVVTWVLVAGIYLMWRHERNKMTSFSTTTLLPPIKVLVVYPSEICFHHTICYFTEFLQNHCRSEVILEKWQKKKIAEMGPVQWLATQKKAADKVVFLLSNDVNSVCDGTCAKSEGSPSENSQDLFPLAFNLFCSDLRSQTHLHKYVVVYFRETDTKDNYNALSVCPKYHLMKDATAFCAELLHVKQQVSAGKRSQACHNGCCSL
Protocol: A standard enzyme-linked immunosorbent assay (ELISA) method was used to determine the species specificity of SM17 against IL-17RB proteins. Briefly, IL-17RB proteins from human, mouse, cynomolgus or rhesus monkey (R&D systems, Minneapolis, MN) were diluted to 2.5 μg/ml in PBS and 50 μl of IL-17RB proteins were added to each well of ELISA strip. The strips were sealed with parafilm and incubated at 4° C. overnight for coating.
On the next day, strips were washed thrice with washing buffer (0.05% Tween 20 in PBS) and blocked with 100 μl per well with blocking buffer (3% BSA in PBS) for 2 hours RT before serially diluted SM17 (at a final concentration of 10, 2, 0.4, 0.08, 0.016, 0.0032, and 0.00064 μg/ml, respectively) was added.

[1] = target: T2, human IL17RB expressed on HEK293 cells (Homo sapiens, UniProt Q9NRM6); test: Flow cytometry, SM17 binding to HEK293 transfected with human IL-17RB; settings: SM17 1 μg/ml
T2 construct: transfected either with full-length human or rhesus monkey IL-17RB (SinoBiological, Beijing, China); host or cells: HEK293
T2 sequence (Q9NRM6 18-502): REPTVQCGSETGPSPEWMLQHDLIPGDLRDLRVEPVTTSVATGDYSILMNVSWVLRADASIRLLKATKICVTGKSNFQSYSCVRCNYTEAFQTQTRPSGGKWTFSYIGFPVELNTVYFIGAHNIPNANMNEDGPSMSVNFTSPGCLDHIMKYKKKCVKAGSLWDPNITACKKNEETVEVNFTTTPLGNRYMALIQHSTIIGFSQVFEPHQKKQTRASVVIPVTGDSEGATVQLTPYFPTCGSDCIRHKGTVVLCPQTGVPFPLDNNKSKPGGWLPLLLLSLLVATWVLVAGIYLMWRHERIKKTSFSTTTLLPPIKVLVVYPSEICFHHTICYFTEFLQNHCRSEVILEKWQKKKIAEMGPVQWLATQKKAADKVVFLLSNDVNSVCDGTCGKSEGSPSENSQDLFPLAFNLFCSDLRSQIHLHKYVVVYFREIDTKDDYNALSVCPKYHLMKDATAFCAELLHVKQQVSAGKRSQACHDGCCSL
Protocol: HEK293 cells (ATCC, Manassas, VA) transfected either with full-length human or rhesus monkey IL-17RB (SinoBiological, Beijing, China) were examined for binding to SM17 following standard protocol for flow cytometry. Wild-type HEK293 stained with IgG4 isotype control (Sino Biological) was used as the negative control and for gating purpose. Briefly, HEK293 cells at a density of 3×10^5 cells were seeded into each well of a 6-well plate. On the next day, human or rhesus Il-17RB full length cDNA were first cloned into pCMV3-untagged expression plasmid through standard molecular cloning technique, and then expression plasmids for human or rhesus IL-17RB were transfected into HEK293 cells by lipofection (Lipofectamine 3000 reagent; Thermo Fisher Scientific). Transfected cells were trypsinized, harvested, and fixed with 4% paraformaldehyde (5 minutes). SM17, or human IgG4 control at 1 μg/ml in washing buffer (3% BSA in PBS) were added to the resuspend cells for incubation at RT for 30 min before Alexa Fluor® 647-conjugated goat anti-human IgG specific antibody (1:2000 dilution in washing buffer) (Jackson ImmunoResearch) was added for flow cytometry analysis using the BD FACSVerse cell analyzer (Becton Dickenson, Franklin Lakes, NJ).

IL-33 = target: T3, IL-33 (Homo sapiens, UniProt O95760); test: ELISA, antigen binding specificity of bsBp (IL-33); design: key: −: no binding; +: weak; ++: moderate; +++: strong binding; N/A refers to no binding affinity; settings: 33.5 nM; antigen coated at 2 μg/mL
T3 construct: purchased R&D systems
T3 sequence (O95760 95-270): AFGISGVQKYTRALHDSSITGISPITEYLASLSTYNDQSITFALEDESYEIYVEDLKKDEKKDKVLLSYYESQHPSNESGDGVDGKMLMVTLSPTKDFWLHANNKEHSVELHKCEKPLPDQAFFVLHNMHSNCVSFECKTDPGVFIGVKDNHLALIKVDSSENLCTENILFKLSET
Protocol: Binding specificities of bsBp were evaluated by standard ELISA assays. Briefly, ELISA strips were coated with the respective target antigens, including IL17RB, IL-33, or TSLP (R&D systems) at a final concentration of 2 μg/mL. Bispecific antibodies were added at 33.5 nM to ELISA strips coated with the desired antigen. After incubation under room temperature for 2 hours, ELISA strips were washed five times with PBS. […] No result is provided for SM17-human TSLPR as the yield was too low to be detected.

For “SM17: humanized anti-IL17RB monoclonal antibody, human IgG4 isotype; HC SEQ ID NO: 32, LC SEQ ID NO: 33”, the “OD 450 nm Absorption, rhesus IL17RB” value (rhesus IL17RB; SM17 0.016 μg/mL) was 0.27 and 0.17, the “OD 450 nm Absorption, rhesus IL17RB” value (rhesus IL17RB; SM17 0.08 μg/mL) was 0.51 and 0.58 and the “OD 450 nm Absorption, rhesus IL17RB” value (rhesus IL17RB; SM17 0.4 μg/mL) was 1.12 and 1.17. For the same substance, the “OD 450 nm Absorption, rhesus IL17RB” value (rhesus IL17RB; SM17 2 μg/mL) was 1.40 and 1.45, the “OD 450 nm Absorption, rhesus IL17RB” value (rhesus IL17RB; SM17 10 μg/mL) was 1.57 and 1.59 and the “binding of SM17 to hIL17RB-HEK293” value [1] was 46%. The “Intensity of specific antigen binding, IL-33 coated on ELISA strips” value (IL-33) was “−”.

— patent US20240409647A1, “BISPECIFIC BINDING PROTEINS AGAINST ALARMINS AND USES THEREOF” (SINOMAB BIOSCIENCE LIMITED, priority 2022, published 2024)
